Test: yeast display, Sf9 membrane polyspecificity reagent, FACS + sequencing; frameworks hold sequencing errors
Outline: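 Nanobodies came from a synthetic yeast display library in Saccharomyces cerevisiae BJ5465, induced with galactose for 36–48 hours and stained for 1 hour at 4 °C with 10% biotinylated, detergent-solubilized Sf9 membrane reagent. Cells were enriched on streptavidin microbeads and then FACS-sorted, with low and high (top ~1%) gates set on anti-HA fluorescence for expression and streptavidin fluorescence for reagent binding. Each polyreactivity label reflects the gate a clone came from. Genes were amplified by colony PCR, sequenced by MiSeq 2 × 250 and filtered by CDR length.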

Row | Sequence | polyreactivity (PSR sort gate)
1 | QVQHVESGGGLVQAGGSLRLSCAASGRIFHGYAMGWYRQSPGKERELVAAITSRGGSTYYADSVKGRFTISRDNAKNTVYLQMNSLKPEDTAVYYCNAGRYLYAFDYWGQGTQVTVSS | low polyreactivity
2 | QVQLVESGGGLVQAGGSLRLSCAASGSTFTAYAMGWYRQATREDRELVARIGGTYYADSVKGRFTISRDNAKNTVYLQMNSLKPEDTAVYYCAAEYGYDFFRSYQEYGYWGQGTQVTVSS | low polyreactivity
3 | QVQLVESGGGLVQAGGSLRLSCAASGRTCWDYAMGWYRPAPGKERELVAAITWGGGSTYYADSVKGRFTISRDNAKNTVYLQMNSLKPEDTAVYYCAADTKGWGQGTQVTVSS | low polyreactivity
4 | QVQLVESGGGLVQAGGSLRLSCGASGNTFYPNAMGWYRQAPGKERELVAAITTSGVTTYYADSVKGSFTISRDNAKNTVYLQINSLKPEDTAVYYCAAYWSRDKYYYWGQGTQVTVSS | low polyreactivity
5 | QVQLVESGGGLVQAGGSLRLSCAASGYIFHYNTMGWYRQAPGKERELVAAITWSGGNTYYADSVKGRFTISRDNAKNTVYLQMNSLKPEDTAVYYFAKLNYSPEATRSNYWGQGTQVTVSS | low polyreactivity
6 | QVQLVESGGGLVQAGGSLRLSCAASGTLSSYAMGWYRQAPGKERELVAAISLSGGSTYADSVKGRFTISRDNAKKSVYLQMNSLKPEDTAVYYCAKDWDVEITWSFSIYNYWGQGTHVTVSS | low polyreactivity
7 | QVQLVESGGGLVQAGGSLRLSCAASGSTFRYYAMGWYRQAPGKERELVAGISSSGGRTYYADSVKGRFTISRDNAKNTVYLQMNSLKPEDTAVYYCAAVRSSWSYYYWGQGTQVTVSS | high polyreactivity
8 | QGQLVESGGGLVQAGGSLRLSCAASGRTFKYNVMGWYRQAPGKERELVAAISSGGGTNYADSVKGRFTISRDNAKNTVDLQMNSLKPEDTAVYYCAAKYAWRLLEMYYWGQGTQVTVSS | low polyreactivity
9 | QVQLVESGGGLVQAGGSLRLSCAASGSTFQGYAMGWYRQAPGKERELVAAISRSGSGTYYADSVKGRFTISRDNAKNTVYLQMNSLKPEDTAVYYCAKDDVRRSTSRHYYYWGHGTQVTVSS | high polyreactivity
10 | QVQLVESGGGLVQAGGSLRLSCPASGFTFSYYVMGWYRQSPGKERELVAAISSGGRTYYADSVKGRFTISRDNAKNTVYFQMNSLKPEDTAVYYCAAVRYSNEDDYWGQGTQVTVSS | high polyreactivity
11 | QVQLVESGGGLVQAGGSLRLSCAASGSTVVRYGMGSYRQAPGKERELVAVISRSGGSTYYADSVKARFTISRDNAKNTVFLQMNSLKPEDTAVYYCAITRYGNPNSGGVGYWGQGTQVTVSS | high polyreactivity
12 | QVQLVESVGCLVQAGGSLRLSCAASGNIITNNAMGWYRQAPGKERELVAAITRGGNTNYADSVKGRFTISRDNAKKTVYLQMKSLKPEDTAVFYCAADRYVELLGYFFEYDYWGQGTQVTVSS | low polyreactivity
13 | QVQLVESGGGLFQEGGSLRLSCAASGRTFKYYAMGWYRQAPGKERELVASISQSGTSTYYADSVKGRFTISRDNAKSTVYLQLNSLKPEDTAVYFCGARTRYRYYSYGYWGQATQVTVSS | high polyreactivity
14 | QVQLVESGGGLVQAGGSLRLSCAASGSTFGRYAMGWYRQAPGKERELVAAISRRGASTYYADSVKGRFTISRDNAKNTVYLQMNSLKPEDTAVYYCATGYPIDLGREFDYWGQGIQVTVSS | high polyreactivity
15 | QVQLVESGGGLVQAGGSLLLICAASGSIFYFYTMGWYRQAPGKERELVASITYSGGRTYYADSVKWSFTMSRDNAKHTVYLQMNSLKPEDPPVDYCAVRGYRRYWGQGTQVTVSS | high polyreactivity
16 | QVQHVESWGGIVQARGSLRLSCAASGSTFSYNALGWYRQPPGKERELVAALTCSGASTYYAYSVKGRFTISRDKAKNTVYLQLSSMNPDDTAVYYCNAPDGPGPNAYYEFDYWGQGTQVTVSS | low polyreactivity
17 | QVQLVESGGGLVQAGGSLRLSCAASGSIFFGYGMGWYRQAPGKERELVATITTSGGTYYADAVKGRFTISRDNAKNTVYLQMNSLKPEDTAVYYCAATAAALDGNTIMYYWGQGTQVTVSS | low polyreactivity
18 | QVQLVESGGGLVQAGGSLRLSCAASGRIFPDNAMGWYRQAPGKERELVASITSGASTNYADSVKGRFTISRDNAKNTVYLQMNSLKPEDTAVYYCAAVTYAQYRRFDYWGQGTQVTVSS | high polyreactivity
19 | QVQLVESGGGLVQAGGSLRLSCAASGSIFTRNAMGWYRPAPGKERELVAAISRRGVSTYYADSVKGRFTTSRDNAKNTVYLQMNSLKPEDTAVYYCNKLSSYVVARRTTEYDYWGQGTQVTVSS | high polyreactivity
20 | QVQLVESGGGLVQAGGSLRLSCAASGSIFYPYAMGWYRQAPGKERELVAAISDSGDITYYADSVKGRFTISRDNAKNTVYLQMNSLKPEDTAVYYCAADRPWGYDYWGQGTQVSVSS | low polyreactivity
21 | QVQLVESGGGLVQAGCSLRLSCAASGFTFGSNEMGWYRPAPGKLRELVAAINYSGVRTYYADSVKGRFTISRDKAMNNVYLQMKSLKPEETAVDFCAKTRSKPISFDYWGQGTQVTVSS | high polyreactivity
22 | QVQLVESGGGLVQAGGSLRLSCAASGSIFYYNAMGWYRQAPGTERELVAAITSSGGSTYYADSVKGRFTISRDNAKNTVYLQMNSLKPEDTAVYYCNADQDAYYLVYIATYDYWGQGTQVTVSS | low polyreactivity

Row | Sequence | polyreactivity (PSR sort gate)
23 | QVQLVESGGGLVQAGGSLRLSCAASGSTFPYYAMGWYRQAPGKEREFVAAISYRGGSTYYADSVKGRFTISRDNAKNTVYLQMNSLKPEDTAVYYCAARSWQDRYANGYNYWGQGTQVTVSS | high polyreactivity
24 | QVQLVESGGGLVQAGGSLRLSCAASGFTFRRNAMGWYRQAPGKERELVAAITASGGRTYYADSVKGRFTISRDYAKNTVYLQMNSLKPEDTAVFYCAARLRNIYYFRMGYWGQGTKVTVSS | high polyreactivity
25 | QDQLVESGGGLVQAGGSLRLSCAASGSIFQSNAMGWYRQAPGKERELVAAITSVGRTNYADSVKGRFTIARDNAKNTVYLQMNSLKPEDTAVYYCAADLRGDNRYYYWGQGTQVTVSS | low polyreactivity
26 | QVQLVESGGLLVQGGGILRLSCAASGRILQGYAMGWSRQAPGKERELVDAISSGGRTYYADSVKGRFTISRDNAKNNYYLQMNSLNPDDTAVYYCAAGECWRIHAYSDDFWVQGTQVTVSS | high polyreactivity
27 | QVQLQESGGGLVQAGGSLRLSCAASGTISYAPHMGWYRQAPGTDSELVAGITIGGTTYYADSVKGRFTISRDNAKNTVYLQMNSLSPGDTAVYYCAAHSEQYTPFYYWGQGTQVTVSS | low polyreactivity
28 | QVQLVESGGGLVQAGGSIRLSCAASGRTFNYYAMGWYRQAPGKERELVAAIDSDGNTYYADSVKGRFTISRDNAKNTVYLQMNSLKPDDTAVYYCAADTHVNPNYDYWGQGTQVTVSS | low polyreactivity
29 | QVKLLESGGGLLQAGGSLRLSCAASGLTFYPYAMAWYRQAPGKERELVATITWSGTTTYYADSVKGRFTISRDNAKNTVYVQMNSLKPEDTAVYYCAADLWEVVTPYVTIDDDYWGQGTQVTVSS | high polyreactivity
30 | QVQLVESGGGLVQAGGSLRLICAASGRTCRTYTMGLYRQATGKEREFVAAITSSGASTYYADSVKGRFTISRDKAKNTVYLQMNSLKPEDTAVYYCAARPRPRSANGMYYWGQVTQVTVSS | high polyreactivity
31 | QVQIVESGGGLVQAGGSLRFSCAASGRIFRGYDMGWYRQAPGKEREFVAAISWSGGNTYYADSVKGRFTISRDNAKNTVYLLMNSLNPEDTAVYYCAARVFGSHFYYRTRPYDYWGQGTQVTVSS | high polyreactivity
32 | QVQLVETVGGLVQAGGSLRLSCAASGIIFKRYPLGGYRQAPGKERELVAAITNRGGTYYADSVKGRFTISRDNEKNSVYLQMYSLKPEDTAVYYFAARYYWIDFKFGGPRDYWGQGTQVTVSS | high polyreactivity
33 | QVQLVESGGGLVQAGGSLRLSCAASGFIFYLYTMGWYRQAPGKERELVAAITGGGGTYYADSVKGRFTISRDNAKNTVYLQMNSLKPEDTAVYYCAAEYYLYLWDEYDYWGQGTQVTVSS | high polyreactivity
34 | QVQLVESGGGLVQAGGSLRLSCAASGNTLYQYAMGWYRQAPGKERELVAAISGIGDSTYYADSVKGRFTISRDNAKNTVYLQMNSLKPEDTAVYYCAADGEYRYDLEYESWGQGTQVTVSS | low polyreactivity
35 | QVQLVESGGGLVQAGGSLRISCAASGYIFRFNAMGCYRPAPGKERELVAVITSGARTYYADSVKGRFTISRDNAKNTVYLQMNSLKPEDNAVYYCNAGARRYLYDYWGQGTQVTVSS | low polyreactivity
36 | QVQIVESGGGLVQAGGSLRLSCAASGRIFERYAMGWYRQAPGKERELVAGISISGGGTYYADSVKGRFTISRDNAKNTVYLQMNSLKPEHNAVYYCAGTFPREEYGYWGEGTQVTVSS | low polyreactivity
37 | QVQLVESGGGLVQAGGSLRLSCAASGLIFATYTMGWYRQAPGKERELVAAITWSGGRTYYADSVKGRFTISRDNAKNTVYLQMNSLKPEDTAVYYCAADPSYALGYDYWGQGTQVTVSS | high polyreactivity
38 | QVQLVDSGGGLVQAGGSLGLSCAASGSIFRNYAMGWYRQAPGKERELVAAISYRVGRTYYADSVKGRFTISRDNAKNSVYLQMNSLNPEDTAVYYCAADSRSPGHDYWGQGTQVTVSS | low polyreactivity
39 | QVQLVESGGGLVQAGGSLRLSCAASGRTFRKYAMGWYRQAPGKERELVAAINRGGTTKYADSVKGRFTISRDNAKNTVYLEMNSLKPEDTAVYYCAVDRQRAGYPKQYDSWGQGTQVTVSS | low polyreactivity
40 | QVQLVESGGGLVQAGGSLRLSCAASGSIFGGYTMGWSRQAPGKERELVAGITISGGSTYYADSVKGRFTISRDNAKNTVYLQMNSLKPEDTAVYYCAAVSFVVSSWGYGYWGQGTQVTVSS | low polyreactivity
41 | QVQLVESGGGLVQAGGSLRISCAASGRILYLNAMGWYRQAPGIEREFVAAISKSGGTTYYADSVKGRFTISRDKAKHTDYLQMNSLKPEDTAVFYCAVDIVRCGRDSWGQGTQVTVSS | low polyreactivity
42 | QVQLVESGGGLVQAGGSLRLSCAASGRIFYWNAMGWYRQAPGKERELVAAITYSTGSTYYADSVKGRFTISRDNAKNTVYLQMNSLKPEDTAVYYCAAEGPRGSWWALYDYWGQGTQVTVSS | low polyreactivity
43 | QVQLVESGGGLVQAGGSLRLSCAASGRTFPAYAMGWYRQAPGKERELVAAISYSGGRTRYADSVKGRFTISRDNAMNSVYLQMNSLKPEDTAVYFCNRVIPTQSLRDYYWGQGTQVTVSS | high polyreactivity
